The target in this experiment is T1, recombinant human Hsp90β (human, UniProt P08238 1-724).
T1 construct: Heat shock protein 90 beta (Hsp90β, constitutively expressed form, gene HSP90AB1), human, recombinant; Commercial protein; also called heat shock protein 90; purified Hsp90; source: bought: StressMarq (recombinant)
Briefly: co-sedimentation; Hsp90β mixed with C9 or BSA (1 µg each) in TBS, 1 h at 37 °C; sucrose density gradient (1–20% by text and methods, 10–30% by legend), 18 h ultracentrifugation, 4 °C; fractions dot blotted with anti-Hsp90β or anti-C9. To be noted: both partners purified.

The record followed here is article PMC5833442, “Cooperation between Hsp90 and mortalin/GRP75 in resistance to cell death induced by complement C5b-9” (Cell Death & Disease, 2018).

T1 sequence (P08238 whole entry): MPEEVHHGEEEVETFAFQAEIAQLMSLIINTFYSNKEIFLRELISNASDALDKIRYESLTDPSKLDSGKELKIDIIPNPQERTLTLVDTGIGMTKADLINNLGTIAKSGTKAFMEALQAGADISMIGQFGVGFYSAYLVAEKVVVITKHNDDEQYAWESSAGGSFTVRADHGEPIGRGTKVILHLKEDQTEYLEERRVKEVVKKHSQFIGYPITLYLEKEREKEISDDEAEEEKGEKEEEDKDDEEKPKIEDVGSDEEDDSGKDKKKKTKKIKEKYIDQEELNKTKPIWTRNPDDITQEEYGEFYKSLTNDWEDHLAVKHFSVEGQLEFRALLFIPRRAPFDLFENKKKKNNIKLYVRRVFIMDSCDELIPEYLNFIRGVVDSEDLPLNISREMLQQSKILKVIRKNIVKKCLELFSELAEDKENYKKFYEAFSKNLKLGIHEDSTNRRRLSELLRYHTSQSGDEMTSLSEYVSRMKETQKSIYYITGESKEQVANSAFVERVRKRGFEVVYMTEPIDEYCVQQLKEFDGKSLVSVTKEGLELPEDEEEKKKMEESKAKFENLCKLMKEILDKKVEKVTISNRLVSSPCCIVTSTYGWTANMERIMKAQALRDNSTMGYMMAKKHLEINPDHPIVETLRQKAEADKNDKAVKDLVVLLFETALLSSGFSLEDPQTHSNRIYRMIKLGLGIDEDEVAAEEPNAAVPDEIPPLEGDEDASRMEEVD

B1: purified human C9 (natural protein)
chain: not shown
notes: Complement component C9, human, purified; also called complement C9; complement protein C9; source: bought: Complement Technology Inc. (purified human C9)
Turning to B1, the binding result is given as “binds”.
